Patent publication US20230201308A1, “TREATMENT OF CORONAVIRUS INFECTION WITH […]” (Eiger Biopharmaceuticals, Inc., priority 2020, published 2023)
Where two headings read alike, the source gives them in different places.

Test system: SARS-CoV-2
[1] = High risk population, Brazil and Toronto, N = 709
[2] = High risk population, Brazil and Toronto, N = 709 vs placebo N = 836
[3] = High risk population, Brazil, N = 698

B1: pegylated interferon lambda-1a (protein)
chain: MKPTTTGKGCHIGRFKSLSPQELASFKKARDALEESLKLKNWSCSSPVFPGNWDLRLLQVRERPVALEAELALTLKVLEAAAGPALEDVLDQPLHTLHHILSQLQACIQPQPTAGPRPRGRLHHWLHRLQEAPKKESAGCLEASVTFNLFRLLTRDLKYVADGNLSLRTSTHPEST
modifications: PEG
notes: 180 mcg subcutaneous injection
- ER visit ≥6 h or hospitalization due to COVID-19: events/patients (All): 25/931
- All cause death or hospitalization for COVID-19: events/patients (All, Brazil+Toronto): 24/931
- All cause death or hospitalization for COVID-19: Bayes prob, Dichotomous (All, vs placebo): 0.951
- All cause death or hospitalization for COVID-19: Bayes prob, TTE (All, vs placebo): 0.9557
- All cause death or hospitalization for COVID-19: HR (95% CrI), TTE (All, vs placebo): 0.65 (0.39, 1.05)
- All cause death or hospitalization for COVID-19: RR (95% CrI), Dichotomous (All, vs placebo): 0.66 (0.40, 1.07)
- ER visit ≥6 h or hospitalization due to COVID-19: Bayes prob, Dichotomous (All, vs placebo): 0.999
- ER visit ≥6 h or hospitalization due to COVID-19: Bayes prob, TTE (All, vs placebo): 0.9995
- ER visit ≥6 h or hospitalization due to COVID-19: HR (95% CrI), TTE (All, vs placebo): 0.47 (0.29, 0.73)
- ER visit ≥6 h or hospitalization due to COVID-19: RR (95% CrI), Dichotomous (All, vs placebo): 0.49 (0.30, 0.76)
- HR, all-cause mortality or hospitalization due to COVID-19, Time-to-Event analysis (Brazil+Toronto combined): 0.65
- RR, all-cause mortality or hospitalization due to COVID-19 (Brazil+Toronto combined): 0.66
- All cause ER visit >6 h, hospitalization, or death: percentage [1]: (4.2%)
- All cause ER visit >6 h, hospitalization, or death: total [1]: 30
- All cause ER visit, hospitalization, or death: percentage [1]: (13.7%)
- All cause ER visit, hospitalization, or death: total [1]: 97
- All cause death or hospitalization due to COVID-19: percentage [1]: (3.1%)
- All cause death or hospitalization due to COVID-19: total [1]: 22
- Days of hospitalization [1]: 0 days
- Days on mechanical ventilation [1]: 0 days
- Days to recovery: median [1]: 14 days
- Death due to COVID-19: percentage [1]: (0.1%)
- Death due to COVID-19: total [1]: 1
- Death or hospitalization due to COVID-19: percentage [1]: (2.8%)
- Death or hospitalization due to COVID-19: total [1]: 20
- Hospitalization for COVID-19 (excluding those resulting in death): percentage [1]: (2.7%)
- Hospitalization for COVID-19 (excluding those resulting in death): total [1]: 19
- Hospitalization or ER (any duration) for COVID-19: percentage [1]: (10.7%)
- Hospitalization or ER (any duration) for COVID-19: total [1]: 76
- Hospitalization or ER >6 h for COVID-19: percentage [1]: (3.1%)
- Hospitalization or ER >6 h for COVID-19: total [1]: 22
- Mechanical ventilation: percentage [1]: (0.6%)
- Mechanical ventilation: total [1]: 4
- All cause ER visit >6 h, hospitalization, or death: Pr (Superiority) [2]: 0.983
- All cause ER visit >6 h, hospitalization, or death: RR (95% CrI), estimated treatment effect [2]: 0.64 (0.41, 0.97)
- All cause ER visit, hospitalization, or death: Pr (Superiority) [2]: 0.887
- All cause ER visit, hospitalization, or death: RR (95% CrI), estimated treatment effect [2]: 0.86 (0.68, 1.10)
- All cause death or hospitalization due to COVID-19: Pr (Superiority) [2]: 0.927
- All cause death or hospitalization due to COVID-19: RR (95% CrI), estimated treatment effect [2]: 0.69 (0.41, 1.14)
- Days of hospitalization: MD (95% CrI), estimated treatment effect [2]: −1.39 (−4.38, 1.20)
- Days of hospitalization: Pr (Superiority) [2]: 0.8509
- Days on mechanical ventilation: MD (95% CrI), estimated treatment effect [2]: −4.47 (−6.89, 3.09)
- Days on mechanical ventilation: Pr (Superiority) [2]: 0.9052
- Days to death for COVID-19: HR (95% CrI), estimated treatment effect [2]: 0.23 (0.01, 1.95)
- Days to death for COVID-19: Pr (Superiority) [2]: 0.9040
- Days to hospitalization for COVID-19: HR (95% CrI), estimated treatment effect [2]: 0.57 (0.33, 0.99)
- Days to hospitalization for COVID-19: Pr (Superiority) [2]: 0.9770
- Days to hospitalization or ER visit >6 h for COVID-19: HR (95% CrI), estimated treatment effect [2]: 0.47 (0.29, 0.74)
- Days to hospitalization or ER visit >6 h for COVID-19: Pr (Superiority) [2]: 0.9992
- Days to hospitalization or death for COVID-19: HR (95% CrI), estimated treatment effect [2]: 0.61 (0.35, 1.07)
- Days to hospitalization or death for COVID-19: Pr (Superiority) [2]: 0.9610
- Days to recovery: HR (95% CrI), estimated treatment effect [2]: 0.93 (0.83, 1.04)
- Days to recovery: Pr (Superiority) [2]: 0.8862
- Death due to COVID-19: Pr (Superiority) [2]: 0.847
- Death due to COVID-19: RR (95% CrI), estimated treatment effect [2]: 0.42 (0.05, 2.06)
- Death or hospitalization due to COVID-19: Pr (Superiority) [2]: 0.961
- Death or hospitalization due to COVID-19: RR (95% CrI), estimated treatment effect [2]: 0.63 (0.37, 1.05)
- Hospitalization for COVID-19 (excluding those resulting in death): Pr (Superiority) [2]: 0.931
- Hospitalization for COVID-19 (excluding those resulting in death): RR (95% CrI), estimated treatment effect [2]: 0.67 (0.38, 1.14)
- Hospitalization or ER (any duration) for COVID-19: Pr (Superiority) [2]: 0.992
- Hospitalization or ER (any duration) for COVID-19: RR (95% CrI), estimated treatment effect [2]: 0.72 (0.55, 0.94)
- Hospitalization or ER >6 h for COVID-19: Pr (Superiority) [2]: 0.999
- Hospitalization or ER >6 h for COVID-19: RR (95% CI), estimated treatment effect [2]: 0.49 (0.30, 0.78)
- Mechanical ventilation: Pr (Superiority) [2]: 0.716
- Mechanical ventilation: RR (95% CrI), estimated treatment effect [2]: 0.72 (0.21, 2.20)
- All cause ER visit >6 h, hospitalization, or death: percentage [3]: (4.3%)
- All cause ER visit >6 h, hospitalization, or death: total [3]: 30
- All cause ER visit, hospitalization, or death: percentage [3]: (13.9%)
- All cause ER visit, hospitalization, or death: total [3]: 97
- All cause death or hospitalization due to COVID-19: percentage [3]: (3.2%)
- All cause death or hospitalization due to COVID-19: total [3]: 22
- Days of hospitalization [3]: 0 days
- Days on mechanical ventilation [3]: 0 days
- Days to recovery: median [3]: 14 days
- Death due to COVID-19: percentage [3]: (0.1%)
- Death due to COVID-19: total [3]: 1
- Death or hospitalization due to COVID-19: percentage [3]: (2.9%)
- Death or hospitalization due to COVID-19: total [3]: 20
- Hospitalization for COVID-19 (excluding those resulting in death): percentage [3]: (2.7%)
- Hospitalization for COVID-19 (excluding those resulting in death): total [3]: 19
- Hospitalization or ER (any duration) for COVID-19: percentage [3]: (10.9%)
